# Assay results taken from US20230279087A1 (INFLARX, published 2023).
# T1: recombinant human C5a (human, UniProt P01031 678-751)
# T1 sequence: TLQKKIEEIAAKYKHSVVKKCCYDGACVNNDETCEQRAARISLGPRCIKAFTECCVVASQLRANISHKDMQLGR
# Key:
# recombinant human C5a [1] = biological target: T1, recombinant human C5a; test: cell-based or functional assay
# recombinant human C5a [2] = biological target: T1, recombinant human C5a; test: ELISA on C5a (ABZENA), 0-100 ng/mL antibody
Binder,"relative blocking activity on rhC5a-induced CD11b upregulation on granulocytes in human whole blood (flow cytometry MFI), 16.7 nM rhC5a, Ag:Ab 1:1, IFX-1 set to 100% [lower graph] (recombinant human C5a [1]) [%]",Relative EC50 (recombinant human C5a [2]),"relative blocking activity on rhC5a-induced CD11b upregulation on granulocytes in human whole blood (flow cytometry MFI), 16.7 nM rhC5a, Ag:Ab 1:1, IFX-1 set to 100% [upper graph] (recombinant human C5a [1]) [%]"
"VH4Vk3 (IFX-2 clone) (antibody, IgG4, Humanized IgG4 (S241P) / kappa; also called VH4/Vκ3; not shown: human kappa light chain constant domain) heavy: not shown light: DIQLTQSPSSLSASVGDRVTITCKASQSVDYDGDSYMKWYQQKPGKAPKLLIYAASNLQSGIPSRFSGSGSGTDFTLTISSLQPEDFATYYCQQSNEDPYTFGQGTKLEIK",102,0.91 relative to IFX-1 (VH0Vk0),
"VH5Vk4 (IFX-2 clone) (antibody, IgG4, V domains shown, Humanized IgG4 (S241P) / kappa; also called VH5/Vκ4; not shown: human kappa light chain constant domain) VH: QVQLVQSGAEVKKPGASVKVSCKASGYSFTTFWMDWVRQAPGQGLEWMGRIDPSDSESRLDQKFKDRVTMTVDKSTSTVYMELSSLRSEDTAVYYCARGNDGYYGFAYWGQGTLVTVSS VL: DIQMTQSPSSLSASVGDRVTITCKASQSVDYDGDSYMKWYQQKPGKAPKLLIYAASNLQSGVPSRFSGSGSGTDFTLTISSLQPEDFATYYCQQSNEDPYTFGQGTKLEIK",,1.53 relative to IFX-1 (VH0Vk0),94
"VH4Vk4 (IFX-2 clone) (antibody, IgG4, V domains shown, Humanized IgG4 (S241P) / kappa; also called VH4/Vκ4; not shown: human kappa light chain constant domain) VH: QVQLVQSGAEVKKPGASVKVSCKASGYSFTTFWMDWVRQAPGQGLEWIGRIDPSDSESRLDQRFKDRVTMTVDKSTSTVYMELSSLRSEDTAVYYCARGNDGYYGFAYWGQGTLVTVSS VL: DIQMTQSPSSLSASVGDRVTITCKASQSVDYDGDSYMKWYQQKPGKAPKLLIYAASNLQSGVPSRFSGSGSGTDFTLTISSLQPEDFATYYCQQSNEDPYTFGQGTKLEIK",,1.03 relative to IFX-1 (VH0Vk0),102
"VH5Vk1 (IFX-2 clone) (antibody, IgG4, V domains shown, Humanized IgG4 (S241P) / kappa; also called VH5/Vκ1; not shown: human kappa light chain constant domain) VH: QVQLVQSGAEVKKPGASVKVSCKASGYSFTTFWMDWVRQAPGQGLEWMGRIDPSDSESRLDQKFKDRVTMTVDKSTSTVYMELSSLRSEDTAVYYCARGNDGYYGFAYWGQGTLVTVSS VL: DIVLTQSPASLAASVGDRVTITCKASQSVDYDGDSYMKWYQQKPGKAPKLLIYAASNLQSGIPSRFSGSGSGTDFTLTISSLQEEDFATYYCQQSNEDPYTFGQGTKLEIK",101,1.28 relative to IFX-1 (VH0Vk0),
"VH3Vk2 (IFX-2 clone) (antibody, IgG4, V domains shown, Humanized IgG4 (S241P) / kappa; also called VH3/Vκ2; not shown: human kappa light chain constant domain) VH: QVQLVQSGAEVKKPGASVKVSCKASGYSFTTFWMDWVRQAPGQGLEWIGRIDPSDSESRLDQRFKDRATLTVDKSTSTVYMELSSLRSEDTAVYYCARGNDGYYGFAYWGQGTLVTVSS VL: DIVLTQSPASLSASVGDRVTITCKASQSVDYDGDSYMKWYQQKPGKAPKLLIYAASNLQSGIPSRFSGSGSGTDFTLTISSLQPEDFATYYCQQSNEDPYTFGQGTKLEIK",,1.05 relative to IFX-1 (VH0Vk0),96
"VH4Vk2 (IFX-2 clone) (antibody, IgG4, Humanized IgG4 (S241P) / kappa; also called VH4/Vκ2; not shown: human kappa light chain constant domain) heavy: not shown light: DIVLTQSPASLSASVGDRVTITCKASQSVDYDGDSYMKWYQQKPGKAPKLLIYAASNLQSGIPSRFSGSGSGTDFTLTISSLQPEDFATYYCQQSNEDPYTFGQGTKLEIK",104,0.86 relative to IFX-1 (VH0Vk0),
"VH5Vk2 (IFX-2 clone) (antibody, IgG4, Humanized IgG4 (S241P) / kappa; also called VH5/Vκ2; not shown: human kappa light chain constant domain) heavy: not shown light: DIVLTQSPASLSASVGDRVTITCKASQSVDYDGDSYMKWYQQKPGKAPKLLIYAASNLQSGIPSRFSGSGSGTDFTLTISSLQPEDFATYYCQQSNEDPYTFGQGTKLEIK",103,1.05 relative to IFX-1 (VH0Vk0),
"VH2Vk4 (IFX-2 clone) (antibody, IgG4, V domains shown, Humanized IgG4 (S241P) / kappa; also called VH2/Vκ4; not shown: human kappa light chain constant domain) VH: QVQLVQSGAEVKKPGASVKISCKASGYSFTTFWMDWVKQAPGQGLEWIGRIDPSDSESRLDQRFKDRATLTVDKSTSTVYMELSSLRSEDTAVYYCARGNDGYYGFAYWGQGTLVTVSS VL: DIQMTQSPSSLSASVGDRVTITCKASQSVDYDGDSYMKWYQQKPGKAPKLLIYAASNLQSGVPSRFSGSGSGTDFTLTISSLQPEDFATYYCQQSNEDPYTFGQGTKLEIK",,0.99 relative to IFX-1 (VH0Vk0),
"VH5Vk3 (IFX-2 clone) (antibody, IgG4, Humanized IgG4 (S241P) / kappa; also called VH5/Vκ3; not shown: human kappa light chain constant domain) heavy: not shown light: DIQLTQSPSSLSASVGDRVTITCKASQSVDYDGDSYMKWYQQKPGKAPKLLIYAASNLQSGIPSRFSGSGSGTDFTLTISSLQPEDFATYYCQQSNEDPYTFGQGTKLEIK",,1.14 relative to IFX-1 (VH0Vk0),96
"VH3Vk4 (IFX-2 clone) (antibody, IgG4, V domains shown, Humanized IgG4 (S241P) / kappa; also called VH3/Vκ4; not shown: human kappa light chain constant domain) VH: QVQLVQSGAEVKKPGASVKVSCKASGYSFTTFWMDWVRQAPGQGLEWIGRIDPSDSESRLDQRFKDRATLTVDKSTSTVYMELSSLRSEDTAVYYCARGNDGYYGFAYWGQGTLVTVSS VL: DIQMTQSPSSLSASVGDRVTITCKASQSVDYDGDSYMKWYQQKPGKAPKLLIYAASNLQSGVPSRFSGSGSGTDFTLTISSLQPEDFATYYCQQSNEDPYTFGQGTKLEIK",103,0.86 relative to IFX-1 (VH0Vk0),
"VH2Vk3 (IFX-2 clone) (antibody, IgG4, V domains shown, Humanized IgG4 (S241P) / kappa; also called VH2/Vκ3; not shown: human kappa light chain constant domain) VH: QVQLVQSGAEVKKPGASVKISCKASGYSFTTFWMDWVKQAPGQGLEWIGRIDPSDSESRLDQRFKDRATLTVDKSTSTVYMELSSLRSEDTAVYYCARGNDGYYGFAYWGQGTLVTVSS VL: DIQLTQSPSSLSASVGDRVTITCKASQSVDYDGDSYMKWYQQKPGKAPKLLIYAASNLQSGIPSRFSGSGSGTDFTLTISSLQPEDFATYYCQQSNEDPYTFGQGTKLEIK",,1.09 relative to IFX-1 (VH0Vk0),
"VH4Vk1 (IFX-2 clone) (antibody, IgG4, V domains shown, Humanized IgG4 (S241P) / kappa; also called VH4/Vκ1; not shown: human kappa light chain constant domain) VH: QVQLVQSGAEVKKPGASVKVSCKASGYSFTTFWMDWVRQAPGQGLEWIGRIDPSDSESRLDQRFKDRVTMTVDKSTSTVYMELSSLRSEDTAVYYCARGNDGYYGFAYWGQGTLVTVSS VL: DIVLTQSPASLAASVGDRVTITCKASQSVDYDGDSYMKWYQQKPGKAPKLLIYAASNLQSGIPSRFSGSGSGTDFTLTISSLQEEDFATYYCQQSNEDPYTFGQGTKLEIK",,1 relative to IFX-1 (VH0Vk0),98
"IFX-1 (VH0/Vκ0), chimeric anti-human C5a IgG4 antibody (antibody, V domains shown, also called VH0Vk0; VH0Vk0 (IFX-1); not shown: human kappa light chain constant domain) VH: QVQLQQSGPQLVRPGTSVKISCKASGYSFTTFWMDWVKQRPGQGLEWIGRIDPSDSESRLDQRFKDRATLTVDKSSSTVYMQLSSPTSEDSAVYYCARGNDGYYGFAYWGQGTLVTVSS VL: DIVLTQSPASLAVSLGQRATISCKASQSVDYDGDSYMKWYQQKPGQPPKLLIYAASNLQSGIPARFSGSGSGTDFTLNIHPVEEEDAATYYCQQSNEDPYTFGGGTKLEIK",,1 relative to IFX-1 (VH0Vk0),
